Experimental data reported in publication PMC5435990 (Nucleic Acids Research, 2017).
Positions count from the first letter of the chain named. Numbers in names are those of the source. Where “and” joins values, the source holds several entries; their conditions need not be identical. Identical values can stand only once.

Experiments:
[1] = target: the molecule itself; experiment: scanning Number and Brightness
SEC = target: the molecule itself; experiment: SEC
[2] = target: the molecule itself; experiment: scanning Number and Brightness; remark: listed apart in the source

B1: GFP-Mrr D203A catalytic mutant (enzyme)
chain: MTVPTYDKFIEPVLRYLATKPEGAAARDVHEAAADALGLDDSQRAKVITSGQLVYKNRAGWAHDRLKRAGLSQSLSRGKWCLTPAGFDWVASHPQPMTEQETNHLAFAFVNVKLKSRPDAVDLDPKADSPDHEELAKSSPDDRLDQALKELRDAVADEVLENLLQVSPSRFEVIVLDVLHRLGYGGHRDDLQRVGGTGDGGIAGVISLDKLGLEKVYVQAKRWQNTVGRPELQAFYGALAGQKAKRGVFITTSGFTSQARDFAQSVEGMVLVDGERLVHLMIENEVGVSSRLLKVPKLDMDYFE
stoichiometry N [1]: 2

B2: Strep-tagged GFP-Mrr (enzyme, Escherichia coli K-12, UniProt P24202 1-304, looked up)
chain: B1 chain with A203D
stoichiometry N (SEC): 4 and 2

B3: GFP-Mrr fusion protein (Mrr, Methylated adenine Recognition and Restriction, fused with GFPmut2) (enzyme)
chain: B1 chain with A203D
stoichiometry N [2]: 2
